In patent US7164000:

molecular target: CCR5 (UniProt P51681); test: cell-based or functional assay

Chain of wild-type RANTES (P13501 24-91): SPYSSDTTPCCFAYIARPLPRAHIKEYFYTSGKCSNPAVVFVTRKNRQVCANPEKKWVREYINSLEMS

Substance	relative antiviral activity (ID90 RANTES/ID90 mutant), MDM, HIV-1BaL (fold compared to wild-type RANTES)	relative antiviral activity (ID90 RANTES/ID90 mutant), PBMC, HIV-1 6366 (fold compared to wild-type RANTES)	relative antiviral activity (ID90 RANTES/ID90 mutant), PBMC, HIV-1BaL (fold compared to wild-type RANTES)	concentration giving the highest inhibition of wild-type RANTES activity (calcium mobilisation)	relative antiviral activity (RANTES ID50/mutant ID50), PBMC, HIV-1BaL (fold compared to wild-type RANTES)	ID90, inhibition of HIV-1BaL infection of PBMC (p24 antigen)
RANTES mutant pVU5 (Ser 1 to Cys) (from UniProt P13501 24-91) (ligand)	0.25	0.23	0.24			
RANTES mutant pVU14 (Tyr 3 to Ala) (from UniProt P13501 24-91) (ligand)	0.23	0.1	0.22			
RANTES mutant pVU15 (Ser 1 to Cys, Ser 5 to Cys) (from UniProt P13501 24-91) (ligand)	4.5	3.3	3.07	500 ng/mL		
RANTES mutant pVU17 (additional N-terminal Leucine) (from UniProt P13501 24-91) (ligand)	11	1.9	4.6			
RANTES mutant pVU22 (Tyr 14 to Phe) (from UniProt P13501 24-91) (ligand)		2.5	10			
RANTES mutant pVU24 (Arg 17 to Ala) (from UniProt P13501 24-91) (ligand)		1.3	1.09			
RANTES mutant pVU26 (Arg 44 to Glu) (from UniProt P13501 24-91) (ligand)					3.16	
RANTES mutant pVU38 (Asp 6 to Arg) (from UniProt P13501 24-91) (ligand)		0.13	0.14			
RANTES mutant pVU43 (Lys 45 to Glu) (from UniProt P13501 24-91) (ligand)					1.44	
wild-type RANTES (from UniProt P13501 24-91) (ligand)						0.096 µg/mL
